This series concerns the target recombinant full-length p21 (Santa Cruz).

The record followed here is patent US20040191240.

recombinant full-length p21 (Santa Cruz), sequence (chain, as listed by the source): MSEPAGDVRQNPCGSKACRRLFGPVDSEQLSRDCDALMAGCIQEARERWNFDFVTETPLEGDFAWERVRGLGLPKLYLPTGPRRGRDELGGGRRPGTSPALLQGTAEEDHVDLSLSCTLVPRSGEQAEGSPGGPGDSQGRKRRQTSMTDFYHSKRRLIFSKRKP

B1: Rho kinase fragment (aa 1-543, Upstate Biotechnology) (protein)
chain: MSRPPPTGKMPGAPETAPGDGAGASRQRKLEALIRDPRSPINVESLLDGLNSLVLDLDFPALRKNKNIDNFLNRYEKIVKKIKGLQMKAEDYDVVKVIGRGAFGEVQLVRHKASQKVYAMKLLSKFEMIKRSDSAFFWEERDIMAFANSPWVVQLFYAFQDDRYLYMVMEYMPGGDLVNLMSNYDVPEKWAKFYTAEVVLALDAIHSMGLIHRDVKPDNMLLDKHGHLKLADFGTCMKMDETGMVHCDTAVGTPDYISPEVLKSQGGDGFYGRECDWWSVGVFLYEMLVGDTPFYADSLVGTYSKIMDHKNSLCFPEDAEISKHAKNLICAFLTDREVRLGRNGVEEIRQHPFFKNDQWHWDNIRETAAPVVPELSSDIDSSNFDDIEDDKGDVETFPIPKAFVGNQLPFIGFTYYRENLLLSDSPSCRENDSIQSRKNEESQEIQKKLYTLEEHLSNEMQAKEELEQKCKSVNTRLEKTAKELEEEITLRKSVESALRQLEREKALLQHKNAEYQRKADHEADKKRNLENDVNSLKDQLEDL
On to B1, for which the “Rho-kinase activity toward S6 kinase substrate peptide ([gamma-32P]ATP, scintillation counting), in vitro” value is “the estimated ICso value was 1.43 nM”.
